# Values of other authors as cited in publication PMC4074225.
# Molecular target: PCNA (Homo sapiens) (UniProt P12004)
# Experiment: SPR
# Chain of UniProt P12004 (P12004 whole entry): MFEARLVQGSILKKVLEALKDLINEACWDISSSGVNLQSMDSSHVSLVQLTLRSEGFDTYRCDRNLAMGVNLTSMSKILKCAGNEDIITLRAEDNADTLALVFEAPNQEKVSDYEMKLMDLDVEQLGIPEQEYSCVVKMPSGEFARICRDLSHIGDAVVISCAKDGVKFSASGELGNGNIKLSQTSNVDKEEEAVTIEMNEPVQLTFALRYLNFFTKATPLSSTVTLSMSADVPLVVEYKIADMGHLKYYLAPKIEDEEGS
substance,measurement,value
DNA polymerase eta 694-713 (from UniProt Q9Y253),Kd,400 nM
